Patent US20190256560A1 (INSTITUT PASTEUR, published 2019)

Target: T1, Recombinant soluble Zika virus E ectodomain (ZIKV sE), strain H/PF/2013 (Zika virus, UniProt A0A024B7W1 291-694)
T1 construct: also called ZIKV sE dimer; recombinant ZIKV E protein
Experiment: BLI (Octet), IgG on anti-human IgG Fc sensors, ZIKV sE dimer in solution

T1 sequence (A0A024B7W1 291-694): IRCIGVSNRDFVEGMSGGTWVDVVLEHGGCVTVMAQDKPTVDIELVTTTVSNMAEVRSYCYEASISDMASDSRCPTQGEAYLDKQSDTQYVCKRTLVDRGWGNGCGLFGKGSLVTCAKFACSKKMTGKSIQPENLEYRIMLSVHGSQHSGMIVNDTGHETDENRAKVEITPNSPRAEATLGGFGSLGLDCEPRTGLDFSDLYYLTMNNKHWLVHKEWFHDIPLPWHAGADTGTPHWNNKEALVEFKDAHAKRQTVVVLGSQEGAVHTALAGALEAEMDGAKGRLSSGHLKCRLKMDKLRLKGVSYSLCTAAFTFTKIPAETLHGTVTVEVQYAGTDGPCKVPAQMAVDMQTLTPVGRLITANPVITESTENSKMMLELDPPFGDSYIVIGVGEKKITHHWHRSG

B1: EDE2 A11, human recombinant IgG (antibody, V domains shown)
VH: EVQLVESGGGLVRPGGSLRLSCAASGFSYSNHWMHWVRQAPGKGLVWVSRINSDGSTRNYADFVKGRFTISRDNAENTLYLEMNSLTADDTAVYYCVRDGVRFYYDSTGYYPDSFFKYGMDVWGQGTTVTV
VL: QSVLTQPVSVSGSPGQSITISCTGTSSNADTYNLVSWYQQRPGKAPKLMIYEGTKRPSGVSNRFSASKSATAASLTISGLQPEDEADYYCCSYATSRTLVFGGGTKLTVV
notes: Human IgG; also called IgG EDE2 A11
B1: binds.
